Literature values, collected in article PMC5501900.

Target: Vinculin tail tail (Homo sapiens) (UniProt P18206)

Substance: Vinculin head head (from UniProt P18206)
- Kd: < 1 nM
